# According to US11141462B2, “Method for the treatment or prevention of osteoarthritis” (Chondropeptix B.V., priority 2016, dated 2021):
# B1: BMP-7: full-length recombinant human bone morphogenetic protein-7; mature polypeptide of 139 amino acids (protein, listed as Homo sapiens)
# chain: STGSKQRSQNRSKTPKNQEALRMANVAENSSSDQRQACKKHELYVSFRDLGWQDWIIAPEGYAAYYCEGECAFPLNSYMNATNHAIVQTLVHFINPETVPKPCCAPTQLNAISVLYFDDSSNVILKKYRNMVVRACGCH
# Tests used:
# [1] = system: OA in rats; conditions: intra-articular administration; cited from earlier work
# [2] = system: OA chondrocytes; conditions: cited from earlier work
# [3] = system: Isolated chondrocytes from OA patients; assay: Treatment of isolated chondrocytes from OA patients, gene expression by qRT-PCR; format: cell-based, human; conditions: 1 nM, 24 h; qRT-PCR normalized for 28S rRNA; n=6
# Method: Isolated chondrocytes from OA patients (n=6) were treated with BMP-7 (1 nM) or the 12-mer peptide according to SEQ ID NO: 43 (1 nM) for 24 h. Pro-chondrogenic (FIG. 8A) and hypertrophic (FIGS. 8B, 8C and 8D) gene expression was determined via qRT-PCR and normalized for 28S rRNA levels.
# [4] = system: Cartilage explants from OA patient's knee cartilage; assay: PGE2 ELISA, cartilage explants; format: cell-based, human; conditions: 1 nM, 14 days
# Method: Cartilage explants of 3 mm^2 were taken from OA patient's knee cartilage (n=6) and treated with BMP-7 (1 nM), with peptide […] (SEQ ID NO: 13) at 10 nM or a scrambled irrelevant control peptide (10 nM) for 14 days. Prostaglandin E2 (PGE2) levels, a pro-hypertrophic factor, were determined via an ELISA.
# [5] = system: Hoffa's fat pad tissue samples from OA patients; assay: PGE2 ELISA, Hoffa's fat pad tissue samples; format: cell-based, human; conditions: 1 nM, 24 h
# Method: Hoffa's fat pad tissue samples from OA patients (n=6) were treated with BMP-7 (1 nM) with peptide […] (SEQ ID NO: 13) at 10 nM or a scrambled irrelevant control peptide (10 nM) for 24 h. PGE2 levels were determined via an ELISA.
# [6] = system: IL-1β-exposed chondrocytes; conditions: cited from earlier work
# [7] = system: cartilage explants from OA patient's knee articular cartilage; assay: Treatment of cartilage explants, hypertrophic gene expression by qRT-PCR; format: cell-based, human; conditions: 1 nM, 24 h
# Method: 4 mm 2 cartilage explants were taken from non-lesion areas of OA patient's knee articular cartilage (n=5) and randomly assigned to different experimental treatment conditions (4 explants per treatment group). After a 24 h equilibration period the explants were treated with BMP-7 (1 nM) or the 12-mer peptide according to SEQ ID NO: 43 (10 nM) for 24 h. Hypertrophic gene expression was determined via qRT-PCR and normalized for 28S rRNA levels. After treatment with BMP-7 or the 12 mer we observed a downregulation of pro-hypertrophic genes, such as Col10a1 (FIG. 9A) and MMP13 (FIG. 9B).
# [8] = system: OA patients; conditions: phase-1 clinical trial in OA patients; intra-articular injection; cited from earlier work
# [9] = system: Osteoarthritis chondrocytes; assay: BMP-7 rescue of OA-associated chondrocyte phenotype (FIG. 1); format: cell-based
# Method: FIG. 1: BMP-7 rescues OA-associated chondrocyte phenotype. Osteoarthritis chondrocytes display a typical phenotype that is characterized by decreased expression of SOX9, COL2A1 and BAPX1/NKX3.2 and an increased expression of COX-2 and IL-6 mRNAs (see left panel).
# Functional ALP enzyme activity in cell lysates and PGE2 secretion in the culture medium was also normalized upon BMP-7 treatment of OA chondrocytes (right panel).
# Expression of indicated mRNAs was determined by RT-qPCR, relatively to control conditions (normalized for 28S rRNA expression). In graphs, error bars represent mean±SEM, statistical differences were calculated as compared to healthy condition. *=p<0.05.
# [10] = system: Synovial tissue samples from OA patients; assay: PGE2 ELISA, synovial tissue samples; format: cell-based, human; conditions: 1 nM, 24 h
# Method: Synovial tissue samples from OA patients (n=6) were treated with BMP-7 (1 nM), with peptide […] (SEQ ID NO: 13) at 10 nM or a scrambled irrelevant control peptide (10 nM) for 24 h. PGE2 levels were determined via an ELISA.
# [11] = system: Meniscus tissue samples from OA patients; assay: PGE2 ELISA, meniscus tissue samples; format: cell-based, human; conditions: 1 nM, 24 h
# Method: Meniscus tissue samples from OA patients (n=6) were treated with BMP-7 (1 nM) with peptide peptide […] (SEQ ID NO: 13) at 10 nM or a scrambled irrelevant control peptide (10 nM) for 24 h. PGE2 levels were determined via an ELISA.
# [12] = system: Cartilage explants; assay: Safranin-O staining of glycosaminoglycans in cartilage explants; format: cell-based, human; conditions: 1 nM, 14 days; explants from 2 patients; compared to control
# Method: Cartilage explants obtained from 2 patients were cultured for 14 days in the presence of BMP-7 (1 nM) or BMP-7 mimicking peptide […] (SEQ ID NO: 13) at 10 nM. Glycosaminoglycans (GAGs), an important component of the extracellular matrix (ECM), were stained with Safranin-O (in red) and other tissues are counterstained with Fast green (in green/blue).
# [13] = BMP-7 1 nM, OA chondrocytes, RT-qPCR normalized for 28S rRNA
# [14] = BMP-7 treatment of OA chondrocytes
molecule,measurement,setting,value
B1,OA development and progression,[1],protects against OA development and delays progression of OA
same,proteoglycan synthesis,[2],stimulates
same,COL10A1 (pro-hypertrophic) gene expression,[3],downregulation
same,COX-2 (pro-hypertrophic) gene expression,[3],downregulation
same,Col2a1 (pro-chondrogenic) gene expression,[3],upregulation
same,RUNX2 (pro-hypertrophic) gene expression,[3],downregulation
same,PGE2 levels,[4],reduce PGE2 levels
same,PGE2 levels,[5],reduce PGE2 levels
same,MMP13 expression,[6],decreases
same,Col10a1 gene expression,[7],downregulation
same,MMP13 gene expression,[7],downregulation
same,adverse events,[8],no serious adverse events
same,BMP-7 concentration at which OA chondrocyte-phenotype suppressive action is most pronounced,[9],around 1 nM
same,BAPX1/NKX3.2 mRNA expression,[9]; [13],normalizing expression
same,COL2A1 mRNA expression,[9]; [13],normalizing expression
same,COX-2 mRNA expression,[9]; [13],normalizing expression
same,IL-6 mRNA expression,[9]; [13],normalizing expression
same,SOX9 mRNA expression,[9]; [13],normalizing expression
same,effects on the chondrocyte phenotype,[9]; BMP-7 concentrations higher than 1 nM (eg 10 nM or 100 nM),opposite and negative effects
same,Functional ALP enzyme activity in cell lysates,[9]; [14],normalized
same,PGE2 secretion in the culture medium,[9]; [14],normalized
same,PGE2 levels,[10],reduce PGE2 levels
same,PGE2 levels,[11],reduce PGE2 levels
same,Safranin-O intensity (glycosaminoglycans),[12],increased Safranin-O intensity
